In patent US20130261013A1 (MODPRO, published 2013):
Square brackets hold non-standard residues; d marks the D form. Side chains are listed from the residue outwards. Ends that are not written are not given here. * marks the point of attachment. X2 = 7‑methoxycoumarin‑3‑carboxylic acid, COc1ccc2cc(C(=O)*)c(=O)oc2c1; Dansyl = CN(C)c1cccc2c(S(=O)(=O)*)cccc12; Ahx = NCCCCCC(=O)O

Columns and labels:
human D-dimer protein [1] = target: T1, human D-dimer protein (human, UniProt P02671 124-216; P02675 164-491; P02679 89-437); assay: SPR (Biacore 2000) screen, D-dimer immobilized on a CM5 chip, binder at 1, 10 and 100 nM, 3 min injection, 10 min clearance
T1 construct: Bought from Abcam Inc. UK; the chain make-up here is from general knowledge
T1 sequence (looked up) 1: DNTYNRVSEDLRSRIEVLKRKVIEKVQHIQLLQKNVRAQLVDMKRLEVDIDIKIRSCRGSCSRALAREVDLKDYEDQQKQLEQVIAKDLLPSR
T1 sequence (looked up) 2: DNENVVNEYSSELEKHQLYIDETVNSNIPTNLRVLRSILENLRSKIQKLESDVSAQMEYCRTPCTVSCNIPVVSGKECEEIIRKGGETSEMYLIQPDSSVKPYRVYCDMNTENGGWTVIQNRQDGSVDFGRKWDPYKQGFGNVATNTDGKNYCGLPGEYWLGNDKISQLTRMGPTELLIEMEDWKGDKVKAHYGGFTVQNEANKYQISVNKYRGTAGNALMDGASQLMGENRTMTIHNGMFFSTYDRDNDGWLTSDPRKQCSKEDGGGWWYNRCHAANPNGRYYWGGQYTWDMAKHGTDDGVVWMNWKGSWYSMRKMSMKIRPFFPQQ
T1 sequence (looked up) 3: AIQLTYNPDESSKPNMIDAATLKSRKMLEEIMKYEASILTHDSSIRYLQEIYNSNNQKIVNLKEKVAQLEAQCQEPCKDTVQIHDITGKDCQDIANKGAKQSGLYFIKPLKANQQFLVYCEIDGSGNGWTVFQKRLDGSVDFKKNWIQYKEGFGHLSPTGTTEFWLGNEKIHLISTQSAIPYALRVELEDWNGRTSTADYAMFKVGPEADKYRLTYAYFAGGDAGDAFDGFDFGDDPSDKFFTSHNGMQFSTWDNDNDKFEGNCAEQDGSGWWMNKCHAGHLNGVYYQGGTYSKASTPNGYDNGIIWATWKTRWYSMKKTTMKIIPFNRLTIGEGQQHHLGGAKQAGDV
Method: (§1) The protein was then further diluted with 10 mM NaOAc at pH 4.6 to give a concentration of about 32 μg/mL. The D-dimer protein was covalently immobilized on the sensor chip surface by amine coupling with HBS-EP (10 mM HEPES, pH 7.4, 150 mM NaCl, 3 mM EDTA and 0.005% P20) (GE Healthcare Bio-Sciences, Uppsala, Sweden) as a running buffer. The CM5 sensor chip surface was activated for 7 min by injecting a solution of EDC/NHS (200 mM 1-ethyl-3-(3-dimethylaminopropyl)-carbodiimide hydrochloride/50 mM N-hydroxysuccinimide) (GE Healthcare Bio-Sciences, Uppsala, Sweden). The D-dimer protein was injected for 1.5 min at flow rate of 5 uL/min over the activated surface and followed by 7-min pulse of 1M ethanolamine at pH 8.5 to deactivate remaining active ester.
The interactions between the D-dimer protein and binders as well as surface competition experiments were studied using a Biacore 2000 instrument (GE Healthcare Bio-Sciences, Uppsala, Sweden), equilibrated at 25° C. The CM5 sensor chip (Research grade, Biacore) and reagents were from GE Healthcare Bio-Sciences, Uppsala, Sweden. For direct interaction studies between immobilized D-dimer protein and polypeptide conjugates, HBS-EP was used as running buffer. […] For minimum sample dispersion, the samples were injected at a flow rate of 50 uL/min. […]

human D-dimer protein [2] = target: T1, human D-dimer protein; assay: SPR screen (Biacore 2000), D-dimer immobilized on CM5, 1:1 Langmuir model
Method: as §1
(§2) The interactions between the D-dimer protein and binders as well as surface competition experiments were studied using a Biacore 2000 instrument (GE Healthcare Bio-Sciences, Uppsala, Sweden), equilibrated at 25° C. The CM5 sensor chip (Research grade, Biacore) and reagents were from GE Healthcare Bio-Sciences, Uppsala, Sweden. For direct interaction studies between immobilized D-dimer protein and polypeptide conjugates, HBS-EP was used as running buffer. […] For minimum sample dispersion, the samples were injected at a flow rate of 50 uL/min. After 10 min of dissociation the surface was regenerated by 30 s pulse injection of 10 mM glycine at pH 3.0. All injections were serial and first passed over the deactivated dextran surface and then over the immobilized surfaces. Blank injections were included for each measurement series and subtracted from the data. Experiments were performed at least twice, unless stated otherwise. […] The dissociation constants, Kd, were obtained using the Biaevaluation program version 3.2 (Biacore) and assuming a simple 1:1 Langmuir binding mechanism.

human D-dimer protein [3] = target: T1, human D-dimer protein; assay: SPR (Biacore 2000), D-dimer immobilized on CM5, binders at 5-160 nM, 1:1 Langmuir model
human D-dimer protein [4] = target: T1, human D-dimer protein; assay: SPR surface competition, D-dimer immobilized; competitor 4-D10L17-GPRP at 100 nM; GPRP in running buffer, competing with 100 nM 4-D10L17-GPRP (Biacore)
Method: as §2

[5] = target: T2, human Carbonic Anhydrase II (human, UniProt P00918 2-260); assay: fluorescence titration, 50 nM fluorescein labelled binder, HCAII 20 pM to 1 µM
Method: The fluorescence titrations were carried out using polypeptides conjugated to a dansyl group rather than a 7-methoxycoumarin to avoid overlap with fluorescein, but a fluorophore is present in each sequence of the scaffold library to simplify identification and quantification throughout synthesis and purification. […] Fluorescence intensities of protein-binder mixtures were compared to intensities of binders without protein. The analysis was performed in 50 mM Hepes buffer at pH 7.4 containing 150 mM NaCl. HCAII was added in 25 steps over a concentration range from 20 pM to 1 μM to the binder at 50 nM concentration and the results analyzed by curve fitting.

[6] = target: T2, human Carbonic Anhydrase II; assay: SPR, HCAII immobilized on CM5, 1:1 model
Method: (§3) HCAI and HCAII were immobilized in different flowcells on a CM-5 (Biacore) chip using standard EDC/NHS coupling in Acetate buffer at pH 5.5.
(§4) SPR measurements were performed on a Biacore® 2000 instrument, with the proteins immobilized on a Biacore® CM-5 sensor chips (GE Healthcare). All interaction studies were performed in Biacore® HSB-EP buffer with the addition of 1% (v/v) DMSO. HCAII (Sigma, lyophilized powder) was dissolved in Acetate buffer pH 5.5 to a 2 mg/mL solution. HCAII were conjugated to the surface by EDC/NHS coupling reactions in Acetate buffer pH 5.5. Solutions of the polypeptide binders were prepared in HBS-EP buffer from stock solutions of 20 μM in DMSO and allowed to flow over the surface at 20 μL/min, with blank injections after every series. All samples were adjusted to contain 1% (v/v) DMSO. Injections were made for 30 s and dissociation was allowed to proceed for 3000 s. Evaluation was performed using a 1:1 binding model.

[7] = target: T2, human Carbonic Anhydrase II; assay: SPR (Biacore 2000), HCAII immobilized on CM5, 1:1 model
Method: The sixteen polypeptide conjugates were also characterized by SPR biosensor analysis (Biacore®, GE Healthcare), using a Biacore® 2000 instrument, Biacore® CM-5 chip and HBS-EP buffer pH 7.4 (Biacore®, GE Healthcare) with addition of 1% DMSO for the interaction studies. Peptide solutions were prepared by dilution in buffer from 20 μM stock solutions in DMSO. HCAII was immobilized on the chip using standard EDC/NHS coupling in Acetate buffer pH 5.5. The binders were allowed to flow over the chip at 7 concentrations in the range from 1 nM to 500 nM and the interactions were evaluated using a 1:1 binding model (BiaEvaluation).
as §4, with “Evaluation was performed using a 1:1 binding model.” left out

[8] = target: T3, human Carbonic Anhydrase I (human, UniProt P00915 2-261); assay: SPR, HCAI immobilized on CM5, 1:1 model
T3 construct: also called HCAI; HCA I
Method: as §3, §4

[9] = target: T3, human Carbonic Anhydrase I; assay: SPR, HCAI immobilized on CM5, 1:1 model; the heads Koff and Kon seem to be swapped
Method: as §3, §4

[10] = target: T2, human Carbonic Anhydrase II; assay: SPR, ratio of the dissociation constants for HCAI and HCAII
Text: as §3

T3 sequence (P00915 2-261 limits assumed): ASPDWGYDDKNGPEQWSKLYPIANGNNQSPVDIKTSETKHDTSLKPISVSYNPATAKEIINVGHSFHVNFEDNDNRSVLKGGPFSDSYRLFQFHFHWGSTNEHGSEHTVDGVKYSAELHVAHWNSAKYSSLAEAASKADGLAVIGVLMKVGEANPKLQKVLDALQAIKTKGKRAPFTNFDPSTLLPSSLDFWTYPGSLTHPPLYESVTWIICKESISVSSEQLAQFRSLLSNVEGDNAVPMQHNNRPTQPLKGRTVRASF

B1: 1D15L8_GPRP (designed binder)
polypeptide: Ac-NEADLEAKIRHLAEKLEARGPEDAEQLAEQLARAFEAFARAG
ligand peptide, branch on Lys8: GPRP[Ahx]G
modifications: not fully specified (some residues); also: reporter group on Lys15, bond at chain A 8 to a chain's C-terminus via 6-aminocaproic acid-Gly
- binding result (human D-dimer protein [1]): no binding (tested: 100 nM)

Binder: Ac-NAADLEAAIRHLAERLAARGPVDAAQLAEQLAAK([Gly-Ahx-Pro-Arg-Pro-Gly])FEKFARAG (designed binder, also: reporter on Lys37, 'D' in the name not explained) [2D37L34_GPRP]
- Kd (human D-dimer protein [2]): 13600 nM

Binder: Ac-NEADLEAAIRHLAERLEARGPADAAQLAEQLAAK([Gly-Ahx-Pro-Arg-Pro-Gly])FEKFARAG (designed binder, also: reporter on Lys37, 'D' in the name not explained) [1D37L34_GPRP]
- Kd (human D-dimer protein [2]): 5070 nM

B2: 3D37L34_GPRP (designed binder)
chain: Ac-NAADLEAAIRHLAERLAARGPVDAAQLAEQLARK([Gly-Ahx-Pro-Arg-Pro-Gly])FEKFARAG
modifications: also: reporter on Lys37
notes: 'D' in the name not explained; a Cys in the loop region may be present
- Kd (human D-dimer protein [2]): 1150 nM
- Kd (human D-dimer protein [3]): 15.4 nM

Binder: GPRP (also called GPRP tetrapeptide) [GPRP peptide]
- IC50 (human D-dimer protein [4]): ~50000 nM

Binder: Ac-NAADLEAK([Ahx-benzenesulphonamide carboxylic acid])IRHLAEK(Dansyl)LAARGPVDC(N‑(5-fluoresceinyl)maleimide)AQLAEQLARRFEAFARAG (designed binder) [3-C15L8-B with dansyl and fluorescein (form for fluorescence titration)]
- Kd [5]: 29 nM

Binder: Ac-NAADLEAK([Ahx-benzenesulphonamide carboxylic acid])IRHLAEK(X2)LAARGPVDAAQLAEQLARRFEAFARAG (designed binder) [3-C15L8-B]
- Kd [6]: 60 nM
- Kd [7]: 43 nM
- Kd [8]: 390 nM

Binder: Ac-NAADLEARIRHLRERLAARGPRDAAQLAEQLARK([Ahx-benzenesulphonamide carboxylic acid])FEK(X2)FARAG (designed binder, not fully specified (C-terminus)) [4-C37L34-B]
- Kd [6]: 17 nM
- kon [9]: 4400 M⁻¹ s⁻¹
- factor of discrimination between HCAI and HCAII [10]: ~30 fold
- Kd [7]: 15 nM
- Kd [8]: 470 nM

Binder: Ac-NAADLEAAIK(Dansyl)HLAEALK([Ahx-benzenesulphonamide carboxylic acid])ERGPEDC(N‑(5-fluoresceinyl)maleimide)EQLAEQLARAFEAFARAG (designed binder) [1-C10L17-B with dansyl and fluorescein (form for fluorescence titration)]
- Kd [5]: 5 nM

B3: 2D15L8_GPRP (designed binder)
chain: Ac-NEADLEAK([Gly-Ahx-Pro-Arg-Pro-Gly])IRHLAEKLAARGPVDAAQLAEQLARAFEAFARAG
modifications: also: reporter on Lys15
notes: 'D' in place of 'C' in the name is not explained; tied to 2-C15L8 by the rest of the name
- Kd (human D-dimer protein [2]): 10400 nM

Binder: Ac-NEADLEAAIRHLAEALAARGPK([Gly-Ahx-Pro-Arg-Pro-Gly])DAKQLAEQLARAFEAFARAG (designed binder, also: reporter on Lys25, 'D' in the name not explained) [2D25L22_GPRP]
- Kd (human D-dimer protein [2]): 16100 nM

Binder: Ac-NAADLEAAIKHLAEALK([Gly-Ahx-Pro-Arg-Pro-Gly])ARGPVDAAQLAEQLARAFEAFARAG (designed binder, also: reporter on Lys10, 'D' in the name not explained) [2D10L17_GPRP]
- Kd (human D-dimer protein [2]): 10300 nM
